Laboratory results from paper PMC9065133.
Values joined by “and” are separate entries in the source; they are usually repeats but may differ in a detail not shown here. Equal values may be shown once.

Experiments:
Assay in all cases: SEC-MALLS
MVV IN V263E = details: IN injected at 2 mg/mL (bar); Superdex-200 column; parent: est. 170; read off a plot
MVV IN H12N = details: IN injected at 2 mg/mL (bar); Superdex-200 column; parent: est. 170; read off a plot
MVV IN W245L = details: IN injected at 2 mg/mL (bar); Superdex-200 column; parent: est. 170; read off a plot
MVV IN Y225A = details: IN injected at 2 mg/mL (bar); Superdex-200 column; parent: est. 170; read off a plot
MVV IN QQQ211PGG = details: IN injected at 2 mg/mL (bar); Superdex-200 column; parent: est. 170; read off a plot
MVV IN I272E = details: IN injected at 2 mg/mL (bar); Superdex-200 column; parent: est. 170; read off a plot
[1] = target: MVV IN QQQ211PGG (maedi-visna virus (KV1772 isolate))
MVV IN F223A = details: IN injected at 2 mg/mL (bar); Superdex-200 column; parent: est. 170; read off a plot
MVV IN V252D = details: IN injected at 2 mg/mL (bar); Superdex-200 column; parent: est. 170; read off a plot
MVV IN W245E = details: IN injected at 2 mg/mL (bar); Superdex-200 column; parent: est. 170; read off a plot
MVV IN W245A = details: IN injected at 2 mg/mL (bar); Superdex-200 column; parent: est. 170; read off a plot
[2] = target: MVV IN QQ207GP (maedi-visna virus (KV1772 isolate))
[3] = target: MVV IN chimera QQQ211PFV304-314 (portion of the PFV IN CCD-CTD linker between MVV IN Gln210 and Gln214) (maedi-visna virus (KV1772 isolate) | prototype foamy virus (PFV))
MVV IN Y261A = details: IN injected at 2 mg/mL (bar); Superdex-200 column; parent: est. 170; read off a plot
[4] = target: maedi-visna virus (MVV) integrase, wild type, KV1772 isolate (maedi-visna virus (KV1772 isolate))
MVV IN E154Q = details: IN injected at 2 mg/mL (bar); Superdex-200 column; parent: est. 170; read off a plot
MVV IN QQ207GP = details: IN injected at 2 mg/mL (bar); Superdex-200 column; parent: est. 170; read off a plot
MVV IN V252A = details: IN injected at 2 mg/mL (bar); Superdex-200 column; parent: est. 170; read off a plot
[5] = target: MVV IN H12N (maedi-visna virus (KV1772 isolate))
MVV IN Y261E = details: IN injected at 2 mg/mL (bar); Superdex-200 column; parent: est. 170; read off a plot
MVV IN R231E = details: IN injected at 2 mg/mL (bar); Superdex-200 column; parent: est. 170; read off a plot

Sequence of maedi-visna virus (MVV) integrase, wild type, KV1772 isolate (P03370 1226-1506 limits assumed): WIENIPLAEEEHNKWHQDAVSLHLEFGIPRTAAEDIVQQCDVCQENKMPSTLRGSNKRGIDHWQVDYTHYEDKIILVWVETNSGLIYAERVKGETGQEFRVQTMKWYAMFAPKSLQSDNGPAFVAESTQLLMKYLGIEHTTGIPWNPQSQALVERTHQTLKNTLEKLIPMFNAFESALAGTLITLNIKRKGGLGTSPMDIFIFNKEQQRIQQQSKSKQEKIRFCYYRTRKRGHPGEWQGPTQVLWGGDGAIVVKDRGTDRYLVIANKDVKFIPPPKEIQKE

maedi-visna virus (MVV) integrase, wild type, KV1772 isolate V263E
other: average molecular mass (MVV IN V263E): 110 kDa

maedi-visna virus (MVV) integrase, wild type, KV1772 isolate H12N
other: average molecular mass (MVV IN H12N): 40 kDa

maedi-visna virus (MVV) integrase, wild type, KV1772 isolate W245L
other: average molecular mass (MVV IN W245L): 110 kDa

maedi-visna virus (MVV) integrase, wild type, KV1772 isolate Y225A
other: average molecular mass (MVV IN Y225A): 120 kDa

maedi-visna virus (MVV) integrase, wild type, KV1772 isolate Q211P; Q212G; Q213G
other: average molecular mass (MVV IN QQQ211PGG): 65 kDa

maedi-visna virus (MVV) integrase, wild type, KV1772 isolate I272E
other: average molecular mass (MVV IN I272E): 100 kDa

MVV IN QQQ211PGG (enzyme)
stoichiometry N [1]: 2

maedi-visna virus (MVV) integrase, wild type, KV1772 isolate F223A
other: average molecular mass (MVV IN F223A): 120 kDa

maedi-visna virus (MVV) integrase, wild type, KV1772 isolate V252D
other: average molecular mass (MVV IN V252D): 80 kDa

maedi-visna virus (MVV) integrase, wild type, KV1772 isolate W245E
other: average molecular mass (MVV IN W245E): 90 kDa

maedi-visna virus (MVV) integrase, wild type, KV1772 isolate W245A
other: average molecular mass (MVV IN W245A): 120 kDa

MVV IN QQ207GP (enzyme)
stoichiometry N [2]: 2

MVV IN chimera QQQ211PFV304-314 (portion of the PFV IN CCD-CTD linker between MVV IN Gln210 and Gln214) (enzyme)
stoichiometry N [3]: 2

maedi-visna virus (MVV) integrase, wild type, KV1772 isolate Y261A
other: average molecular mass (MVV IN Y261A): 100 kDa

maedi-visna virus (MVV) integrase, wild type, KV1772 isolate (enzyme)
stoichiometry N [4]: 4 and 8

maedi-visna virus (MVV) integrase, wild type, KV1772 isolate E154Q
other: average molecular mass (MVV IN E154Q): 180 kDa

maedi-visna virus (MVV) integrase, wild type, KV1772 isolate Q207G; Q208P
other: average molecular mass (MVV IN QQ207GP): 65 kDa

maedi-visna virus (MVV) integrase, wild type, KV1772 isolate V252A
other: average molecular mass (MVV IN V252A): 120 kDa

MVV IN H12N (enzyme)
stoichiometry N [5]: 2

maedi-visna virus (MVV) integrase, wild type, KV1772 isolate Y261E
other: average molecular mass (MVV IN Y261E): 78 kDa

maedi-visna virus (MVV) integrase, wild type, KV1772 isolate R231E
other: average molecular mass (MVV IN R231E): 180 kDa
